Assay: yeast display, Sf9 membrane polyspecificity reagent, FACS + sequencing; frameworks hold sequencing errors
Outline: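 Galactose induction of a Saccharomyces cerevisiae BJ5465 synthetic nanobody display library ran 36–48 hours. The cells were then stained for 1 hour at 4 °C with 10% biotinylated, detergent-solubilized Sf9 membrane reagent, pulled down on streptavidin microbeads and FACS-sorted into low and high (top ~1%) gates on expression and reagent-binding fluorescence. Labels for polyreactivity follow the gate of origin.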

Sequence	polyreactivity (PSR sort gate)
QVQLVESGGGLVQAGGSLRLSCAASGSIFWSYAMGWYRQAPGKERELVAAITYSGTSTYYADSVKGRFTISRDNAKNTVYLQMNSLKPEDTAVYYCNADAYVYFDDGDYWGQGTQVTVSS	low polyreactivity
QVQLVESGGGLVQAGGSLRLSCAASGITFSWYVMGWSRQAPGKERDLVATITNRGGSTYYADSVKGRFTISRDNAKNTVYLQMNSLKPEDTAVYYCAARKKGSRVGYDYWGQGTQVTVSS	high polyreactivity
QVQLVESGGGLVQAGGSLRLSCAASGSIFRRKAMGWYRQAPGKERELVAAIRRGGSTNYADSVKGRFTISRDNAKNTVYLQMNSLKPEDTAVYYCAARGGSSGFYYWGQGTQVTVSS	high polyreactivity
QVHLVESGGGLVQAGGSLRLSCAASGRILNWNAMGWYRQAPGKDREFVAAIRTSGGDSTSYADSVKGRFTISRDNAKNTVYLQMTSLKPEDTAVFDCAKTVWWYYRYPFDYWGQGTQVTVSS	low polyreactivity
QVQLVESGVGLVQAGGSLRLSCAASGGTFGYYVMGWYRQATGKESELVAAITSGGSTKYADSVKGRFTISRDNAKNTVYLQMNSLNPEDTAVYYCAADVTRREPYQSYDFWGQGTQVTVSS	low polyreactivity
QVQLVESGGGLVQAGCSLRLSCAASGLIFLPYAMGWYIQAPGKERELVAAINFSTGSTHYADSVKGRFTISRDNAKNTVFLQMNSLKPEDTAVYYCAVYTSQIYGYWGQGTQVNVSS	high polyreactivity
QVQLVESGGGLVQAGGSLRLSCAASGRIFDANAMGWYRQAPGKERELVAAINLSGTSTYADSVKGRFTISRDNAKNTVYLQMNSLKPEDTAVYYCNKRSPSTIRFDYWGQGTQVTVSS	high polyreactivity
QVQLVESGGGLVQAGGSLRLSCAASAFTFYYYDMGWYRQAPGKERELVAAIDTSDGSTYYADSVKGRFTISRDNAKNTVYLQMNSLKPEDTAVYYCSAEVDWVPFLLVYWGQGTQVTVSS	low polyreactivity
QVQHVESGGGLVQAGGSLRLSCAASGRIFHRNAMGWYRKAPGKERELVAAISYRSGSTYYADSVKGRFTISRDNEKYTVYLQMNSLKPEDTAVYYCAKVRHIRFHYYYGYQSYYYWGQGTQVTLSS	high polyreactivity
QVQLVESVGGLVQAGGSLRLSCAASGRTFSRFAMGWYRKAPGKERELVAAISYSGGRTYYADSVKGRFTISRDNAKNTVYLQMNSLKPEDTAVYYCAASWPGDTVDYDYWGQGTQVTVSS	high polyreactivity
PVQLVESGGGLVQAGGSLPLSCAASGRTFPFNAMRWYRQAPGKERELVATINYRGGSTYYADSVKGRFTISRDNAKNTVYLQMNSLKPEDTAVYYCAAGKIGRYHYDYWGQGTQVTVSS	high polyreactivity
QVQLVESGGGLVQAGGSLRLSCAASGYIFYNYAMGWYRQAPGKERELVAAISRRGGSTYYADSVKGRFTISRDNAKNTVYLQMNSLKPEDTAVYYCAKTPYAHPNYYTDYYWGQGTQVTVSS	high polyreactivity
QVQLVESGGGLVQAGGSLRLSCAASGRIFDFNAMGWYRQAPGKDRELLAAISRGGGSTYYADSVKGRFTMSRDNAKYTVYLQMNSLKPEDTAVYYCNADYYYPLRSNKYYYWGQGTQVTVSS	high polyreactivity
QVQLVESGGGLVQAGGSLRLSCAASGSTFIKYTMGWYRQAPGKERELVAAISVRGGSTTYADSVKGRFTISRDNAKNTVYLQRNSLKPEDTAVYYCAKDHYYAGTWRYGYWGQGTQVTVSS	high polyreactivity
QVQLVESGGGLVQAGGSLRLSCAASGGTFARYAMGWYRQAPGKERELVAAITRSGGTTYYADSVKGRFTISRDNAKNTVYLQMNSLKPEDTAVYYCAALPIVDYYGYGYWGQGTQVTVSS	high polyreactivity
QVQLVESGGGLVQAGGSLRLSCAASGRIFWYYAMGWYRQAPGKERELVARISSSGGSTYYADSVKGRFTISRDNAKNTVYLQMNSLKTDYTAVYFWAKERYSGSSRYPMDYWGQGTQVTVSS	high polyreactivity
QVQLVESGGGLVQAGGSLRLSCAASGRTFRPNAMGWYRQAPGKERELVAAISRRGGSTNYADSVKGRFTISRDNAKNTVYLQMNSLKPEDTAVYYCNSRGRRGYDYWGQGTQVTVSS	high polyreactivity
QVQLVESGGGLVQAGGSLRLSCAASGSIIVYYAMGWYRQAPGKQRELVAANDQSGGSTYYADSVKGRFTISRDNAKNTVYLQMNSLKPEDTAVYYCASVHSLYWLGDDTYGYDYWGQGTQVTVSS	low polyreactivity
QVQLVEAGGGLVQAGGILRLSSAASGSIFPLNAMGWYRQAPGKERELVAAISESGGRTYYADSVNGRFTISRDNAKNTVYLQMNSLNPEDTAVYYCATVRLARKSAPYDYWGQGTQVTVSS	high polyreactivity
QVPLVESGGVLVQAGGSLRLSFAASGRIYENAMGWYRQAPVNERELVAVISWSGGSKSYADSVKRRLTISRDNAMNTVYFQMNRLKPEDTAVYYCNAYRLLSRRYYYLGQGTQVTVSS	low polyreactivity
QDQLVESGGGLVQAGGSLRLICAASGMGWFRQAPGKEREFVAVIRWSSGSTYYADSVKGRFTISRDNAKNTVYLQMNSLKPEDTAVYYCAAGGYPSLLHDYDYWGQGTQVTVSS	low polyreactivity

Sequence	polyreactivity (PSR sort gate)
QVQLVESRGGLVQAGGSLRLSCSASGFIRTYAMGWYRQAPAKERELVAAITSSGGRTNYADSVKGRFTISRDNAKNTVYLQMNSLKPEDTAVYYCAAGLGRYLRYNYWGQGTQVTVSS	high polyreactivity
QVQLVESGGGLVQAGGSLRLSCAASGRIFYLYAMGWYRQAPGKERELVATISGSGGSTYYADSVKGRFTISRDNAKNTVYLLMISLKPEDTAVYYCAAVSVSSWYDYWGQGTQVSVSS	low polyreactivity
QVQLVESGGGLVQAGGSLRLSCAASGYIFPSNTMGWSIQAPGKERELVATISRSGVSTYYADSVKGRFTISRDYAKNTVYLHMYSLKPDDTAVYYCAASTVYYYRSKWLSSFDYWGQGTQVTVSS	low polyreactivity
QVQLVEAGGGLVQAGGSLRLSCAASGRTFPVNPMGGYRQAPGKERELVAAISKRAGSTYYADSVKGRFTISRDNAKNTVYLQMNSLKPEDTAVYYCAARWRVIYAEFDYWGQGTQVTVSS	high polyreactivity
QVQIVESGGGLVQAGGSLRLRCAASGITFSIYAMGWYRQAPGKERELVAAIDSGGGTNYADSVKGRFTISLDNAKNTVYLQMNSLKAEDTAVYYCAADFLKVDWYDYWGQGTQVTVSS	low polyreactivity
QVQLVESGGGLVQAGGSLRLSCAASGLIYYRYAMGWYRQAPGKERELVAAITTNGARTYYADSVKGRFTISRDNAKNTVYLQMNSLKPEDTAVYYCAAYGAGKFWAEHNYWGQGTQVTVSS	high polyreactivity
QVQLVESGGGLVQAGGSLRLSCAASGRIFYWYDMGWYRQAPGKERELVAAISTRGGSTYYADSVKGRFTISRDNAKNTVYLQMNSLKPEDTAVYYCAARANPYVLKYYYWGQGTQVTVSS	high polyreactivity
QVQLVESGGGLVQAGGSLRLSCAASGFTFGVYAMGWYRQAPGKERELVAAITWSGGRTYYADSVKGRFTISRDNAKNTVYLQMNSLKPEDTAVYYCAAVFYRYNAVRYDYWGQGTQVTVSS	high polyreactivity
QVQLVESGGCLVQAGGSLRLSCDASGSTFLTNTMGWYRQPPGKERELVAAISSGDSTYYADSVKGRFTISRDNAKNTVYLQMNSLKPEVTAVYYCARDVGWRNVPRDYWGQGTQVTVSS	low polyreactivity
QVQLVESGGGLVQAGGSLRLSCAASGRTFRYYAMGWYRQAPGKERELFAAITSTGSTNYADSVKGRFTISRDNAKNTVYLQMNSLKPEDTAVYYCAARVNGKRRRYDYWGQGTQVTVSS	high polyreactivity
QVQLVESGGGLVQAGGSLRLSCAASGFTFKYYAMGWYREAPGKERELVAAISLTGGSTYYADSVKGRFTISRDNAKNTVYFQMHSLIPEDTAVNYCNAVQGRQRGWEGPYGYWGQGTQVTVST	high polyreactivity
QVQLVESGGGLVQAGGSLRLSCAASGRIFPLYAMGWYRQAPGKERELVADISVTGTSTYYADSVKGRFTISRDNAKNTVYLQMNSLKPEDTAVYYCAADLWAYGPLWRWSRADYDYWGQGTQVTVSS	low polyreactivity
QVQLVESGGGLVQAGGSLRLSCAASGFIFDPNAMGWYRLAPGKERELVAAISSSGGRTYYADSVKGRFTISRDNAKNTVYLQMNSLKPEDTAVYYCNARDYSGFQTGASAAFDYWGQGTQVTVSS	low polyreactivity
QVQLVESGGGLVQAGGSLRLSCAPSGIIFPTYAMGWYRQAPGKERELVAAIRWNGGSTYYADSVKGRFTISRDNAKNTVFLQMTILKPEDTAVYYCAAGYRGSYKYYYWGQGTQVTVSS	high polyreactivity
QVQLVESGGGLVQAGGSLRLSCAASGITFNGYVMGWYRQAPGKERELVAAITSGGSTNYADSVKGRFTISRDNAKNTVYLQMNSLKPEDTAVYYCAARYKAYWQLYDYWGQGTQVTVSS	high polyreactivity
QVQLVESGGGLDQAGGSLRLICAASGSTFRYNAMGWYRQAPGKERELVAAISSSGGSTRYADSVKGRFTISRDNAKNTVYLQMNSLKPEDTAVYYCAVRFYDWRYYYWGQGTQVTVSS	high polyreactivity
IIQAGGSLRLSCAASGRTFSGYARGWYRQAPGKERELIADITSGGSTYYADSVKGRFTISRDNAKNTVYLQMNSLKPEDTAVYYCSRDDRLAGDYWGQGTQVTVSS	low polyreactivity
QVQLVESGGGLVQAGGSLRLSCAASGSIFDVNSMGWYRQAPGKERELVAAISDSGGSTYYADSVKGRFTISRDNAKNTVYLQMNSLKPEDTAVYYCNADWSWYNYYDFDYLGQGTQVTVSS	low polyreactivity
QVQLVESGGGLVHAGCRLRLSCAPSGSILYYNAMGGYRQAPGNERELVAAITSGGSTYADSVKGRFTISRDNAKNTVYLQMYSLKPEDTAVDYCAADLDWSLSVFGTTLEHDDWGQGTQVTVSS	low polyreactivity
QVQLVESGGGLVQAGGSLRLSCAASGRIFSRNAMGWYRQAPGKERELVAAITSGGSTYYADSVKGRFTISRDNAKNTVYLQMNSLKPEDTAVYYCAKRLTYYSWYHLYDYWGQGTQVTVSS	high polyreactivity
